The target of one test is T1, mouse DLL4 on cells (mouse, UniProt Q9JI71 27-686).
T1 construct: whole, on cells; also called mouse DLL4-293G; mu DLL4 cells
Kind of test: FACS, DLL4 cells. On the technique in general: Flow cytometry measures light scatter and fluorescence of single cells or particles in a stream.

For test [1], the target named is T2, human DLL4, full length, on cells (human, UniProt Q9NR61 27-685).
T2 construct: also called huDLL4 cells; human DLL4-293G
Put plainly: FACS, DLL4 cells.

Test [2] concerns the target T3, mouse DLL4 extracellular domain (mouse, UniProt Q9JI71 27-532).
T3 construct: extracellular domain; also called muDLL4 ECD; murine DLL4
Kind of test: SPR (Biacore). On the procedure:
(§1) The BIACORE® surface plasmon resonance assay (Biacore, Inc., Piscataway, N.J., US) determines the affinity of antibodies with kinetic measurements of on-rate and off-rate constants. Binding of DLL4 antibodies to a purified recombinant DLL4 extracellular domain (ECD) was determined by surface plasmon resonance-based measurements with a Biacore® instrument (either a Biacore 2000, Biacore 3000, or Biacore T100; GE Healthcare, Piscataway, N.J., US) using running buffer HBS-EPB (10 mM HEPES [pH 7.4], 150 mM NaCl, 3 mM EDTA, 0.1 mg/ml BSA and 0.005% surfactant P20) at 25° C. For example, approximately 9000 RU of goat anti-human Fc specific polyclonal antibody (Thermo Fisher Scientific Inc., Rockford, Ill., US) diluted in 10 mM sodium acetate (pH 4.5) is directly immobilized across a CMS research grade biosensor chip using a standard amine coupling kit according to manufacturer's instructions and procedures at 25 μg/ml. Unreacted moieties on the biosensor surface were blocked with ethanolamine. For kinetic analysis, rate equations derived from the 1:1 Langmuir binding model were fitted simultaneously to multiple antigen injections (using global fit analysis) with the use of Scrubber 2 (BioLogic Software), Biacore Biaevaluation 4.0.1 software or Biacore T100 Evaluation software. Purified antibodies were diluted in running buffer for capture across goat anti-human Fc reaction surfaces. Antibodies to be captured as a ligand (1 μg/ml) were injected over reaction matrices at a flow rate of 10 μl/min. During the assay, all measurements were referenced against the capture surface alone (i.e., with no captured anti-DLL4 antibody). […] The equilibrium dissociation constant KD (M) of the reaction between antibodies and the target antigen was then calculated from the kinetic rate constants by the following formula: KD=Koff/Kₒₙ. Binding was recorded as a function of time and kinetic rate constants were calculated.
For orientation: Surface plasmon resonance follows binding to a sensor surface in real time, without labels.

In test [3] the target is T4, human DLL4 extracellular domain (human, UniProt Q9NR61 27-529).
T4 construct: purified recombinant ECD; biotin-labelled or 6xHis-tagged depending on the assay; also called huDLL4 ECD; hu DLL4 ECD
Kind of test: SPR (Biacore). The protocol:
as §1

For test [4], the target named is T3, mouse DLL4 extracellular domain. Put plainly: competition ELISA vs Notch-1. The protocol: (§2) Plates were then washed 3 times with wash buffer (PBS, 0.05% Tween-20) and blocked with 200 μl/well blocking buffer (D-PBS, 1% BSA, 1 mM CaCl₂, 0.05% Tween-20) for 1 hour at 25° C. While blocking, biotin labeled DLL4 extracellular domain (14 nM) was mixed with antibody (30 pM-66 nM, 3-fold serial dilution in blocking buffer) for 1 hour at 25° C. with shaking. Assay plates were washed after blocking, and incubated with DLL4/antibody mixtures (100 μl/well, 1 hour at 25° C. with shaking). Plates were washed again and 100 μl/well streptavidin conjugated with HRP (Fitzgerald #65R-S104PHRPx, diluted 1:5,000 in blocking buffer) was added for 1 hour at 25° C. with shaking. After a final wash, plates were developed using 100 μl/well substrate (TMB Sigma #T8665), and the reaction was stopped using 100 μl/well 1N HCl, and the absorbance was read at 450 nm. Data were analyzed using Graphpad Prism software and IC₅₀ values were reported as the concentration of antibody to achieve 50% reduction of DLL4 bound to Notch1.
(§3) Purified variants were further characterized for their affinities for human, murine and cynomolgus DLL4 by binding ELISA (Example 1.2, Method 2), by Biacore (Example 1.1), and by Flow Cytometry (FACS). […] The humanized variants were then tested for their functionality with human and murine DLL4 by competition ELISA (Example 1.3) and by Notch reporter assay (Example 1.6).
(In general: An ELISA detects its analyte on a solid surface through an enzyme-linked reagent.)

The target of test [5] is T4, human DLL4 extracellular domain. Put plainly: competition ELISA vs Notch-1. On the procedure:
as §2, §3

The target in test [6] is T2, human DLL4, full length, on cells. Kind of test: cell-based or functional assay.
Test [7] has as its target T5, rat DLL4 extracellular domain (rat, UniProt D3ZHH1 28-530).
T5 construct: extracellular domain; also called ratDLL4 ECD
Put plainly: SPR (Biacore). A digest of the protocol: (§4)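 Purified anti-DLL4 antibodies (1 μg/ml) captured on immobilized goat anti-human Fc, with DLL4 ECD injected as analyte; HBS-EPB running buffer (pH 7.4), 25° C, referenced against capture-only surface. On/off rates from global 1:1 Langmuir fit; KD = Koff/Kon.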

Test [8] has as its target T3, mouse DLL4 extracellular domain. Put plainly: SPR (Biacore). In short, it runs like this: as §4
The source holds these as a separate data set.

Test [9] deals with T4, human DLL4 extracellular domain. Kind of test: SPR (Biacore). A digest of the protocol:
as §4
The source holds these as a separate data set.

Test [10] has as its target T6, cynomolgus monkey DLL4 extracellular domain (cynomolgus monkey).
T6 construct: extracellular domain; also called cynoDLL4 ECD; Cyno DLL4
Kind of test: SPR (Biacore). In short, it runs like this:
as §4

Test [11] concerns the target T3, mouse DLL4 extracellular domain. Kind of test: binding ELISA. The protocol: (§5) Plates were then washed 3 times. 100 μl/well of recombinant rat/human chimeric or recombinant human anti-DLL4 antibodies were then added to the plate (0.00164-27 nM, 4-fold serial dilution in ELISA buffer=PBST, 10% Superblock (Pierce #37515)) for 1 hour at 25° C. with shaking and then washed again 3 times. Plates were incubated with goat anti-human HRP (Pierce #31412) (1:40,000 dilution in ELISA buffer, 100 μl/well) for 1 hour at 25° C. with shaking, then washed 3 times. After the final wash, plates were incubated with 100 μl/well ELISA substrate (Sigma #T8665). The reaction was stopped after 8 minutes at 25° C. with 100 μl/well 1N HCl and the absorbance was read at 450 nm. Data were analyzed using Graphpad Prism software, and EC50 values were reported.
as §3

Test [12] has as its target T4, human DLL4 extracellular domain. Kind of test: binding ELISA. On the procedure: as §5, §3
The target of test [13] is T6, cynomolgus monkey DLL4 extracellular …. Kind of test: binding ELISA. On the procedure: as §5, §3

Usually EC50 stands for the concentration needed to bring the measured effect to its halfway point. Broadly, the Kd is the concentration at which binding is half-saturated. One may read the IC50 as the concentration that gives 50% inhibition. What is called koff is the first-order rate constant of dissociation. For orientation: kon means the second-order rate constant of association.

Like-named read-outs stand apart in the source and are kept apart here.

T1 sequence (Q9JI71 27-686): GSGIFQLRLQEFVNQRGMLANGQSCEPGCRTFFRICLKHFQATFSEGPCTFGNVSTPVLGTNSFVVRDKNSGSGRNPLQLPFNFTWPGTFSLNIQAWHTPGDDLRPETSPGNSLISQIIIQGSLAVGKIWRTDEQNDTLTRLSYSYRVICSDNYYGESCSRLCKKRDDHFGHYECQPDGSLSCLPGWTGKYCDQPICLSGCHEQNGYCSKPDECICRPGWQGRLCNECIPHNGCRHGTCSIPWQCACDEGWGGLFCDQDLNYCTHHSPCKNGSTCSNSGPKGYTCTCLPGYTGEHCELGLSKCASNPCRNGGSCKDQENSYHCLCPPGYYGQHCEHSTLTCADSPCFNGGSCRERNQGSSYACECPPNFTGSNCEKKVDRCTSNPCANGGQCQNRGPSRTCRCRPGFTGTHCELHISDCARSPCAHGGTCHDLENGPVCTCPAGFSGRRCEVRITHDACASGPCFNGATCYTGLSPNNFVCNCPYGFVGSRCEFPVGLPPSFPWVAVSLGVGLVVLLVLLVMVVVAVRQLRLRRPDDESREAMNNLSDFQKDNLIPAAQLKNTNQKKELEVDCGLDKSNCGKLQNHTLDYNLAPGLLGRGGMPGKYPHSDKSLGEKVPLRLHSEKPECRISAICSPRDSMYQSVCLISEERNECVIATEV
T3 sequence (Q9JI71 27-532): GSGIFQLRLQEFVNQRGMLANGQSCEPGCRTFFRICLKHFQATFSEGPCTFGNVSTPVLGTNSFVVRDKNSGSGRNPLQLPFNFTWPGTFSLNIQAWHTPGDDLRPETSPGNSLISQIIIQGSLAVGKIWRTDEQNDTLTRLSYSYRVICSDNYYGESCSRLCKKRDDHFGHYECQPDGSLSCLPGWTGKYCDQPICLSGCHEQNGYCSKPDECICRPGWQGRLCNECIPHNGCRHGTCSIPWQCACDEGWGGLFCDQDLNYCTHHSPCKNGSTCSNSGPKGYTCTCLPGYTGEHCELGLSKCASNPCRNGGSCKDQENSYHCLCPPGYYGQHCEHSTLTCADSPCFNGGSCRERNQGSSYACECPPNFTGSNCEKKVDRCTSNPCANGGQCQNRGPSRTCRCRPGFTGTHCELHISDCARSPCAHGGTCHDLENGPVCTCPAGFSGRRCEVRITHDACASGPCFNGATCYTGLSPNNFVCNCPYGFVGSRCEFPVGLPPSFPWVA
T2 sequence (Q9NR61 27-685 limits assumed): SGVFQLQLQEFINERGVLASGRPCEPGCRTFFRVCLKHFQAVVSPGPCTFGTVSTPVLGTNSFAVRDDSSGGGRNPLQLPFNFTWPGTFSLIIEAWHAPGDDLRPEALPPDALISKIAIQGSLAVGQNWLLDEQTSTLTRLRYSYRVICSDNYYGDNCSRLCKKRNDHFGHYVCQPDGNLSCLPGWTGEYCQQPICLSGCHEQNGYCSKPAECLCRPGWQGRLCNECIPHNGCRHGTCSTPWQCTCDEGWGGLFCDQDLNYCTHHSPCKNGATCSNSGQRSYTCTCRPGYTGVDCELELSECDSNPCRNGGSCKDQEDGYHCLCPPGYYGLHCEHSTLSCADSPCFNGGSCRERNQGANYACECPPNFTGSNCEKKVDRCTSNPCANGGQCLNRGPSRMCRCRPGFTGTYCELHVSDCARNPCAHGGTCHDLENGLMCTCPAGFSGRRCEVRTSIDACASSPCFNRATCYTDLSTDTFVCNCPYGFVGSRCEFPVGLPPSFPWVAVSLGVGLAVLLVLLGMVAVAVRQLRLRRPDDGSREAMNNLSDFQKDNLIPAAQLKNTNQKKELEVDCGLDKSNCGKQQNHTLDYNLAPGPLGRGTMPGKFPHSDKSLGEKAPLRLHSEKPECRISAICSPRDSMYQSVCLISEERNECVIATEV
T4 sequence (Q9NR61 27-529 limits assumed): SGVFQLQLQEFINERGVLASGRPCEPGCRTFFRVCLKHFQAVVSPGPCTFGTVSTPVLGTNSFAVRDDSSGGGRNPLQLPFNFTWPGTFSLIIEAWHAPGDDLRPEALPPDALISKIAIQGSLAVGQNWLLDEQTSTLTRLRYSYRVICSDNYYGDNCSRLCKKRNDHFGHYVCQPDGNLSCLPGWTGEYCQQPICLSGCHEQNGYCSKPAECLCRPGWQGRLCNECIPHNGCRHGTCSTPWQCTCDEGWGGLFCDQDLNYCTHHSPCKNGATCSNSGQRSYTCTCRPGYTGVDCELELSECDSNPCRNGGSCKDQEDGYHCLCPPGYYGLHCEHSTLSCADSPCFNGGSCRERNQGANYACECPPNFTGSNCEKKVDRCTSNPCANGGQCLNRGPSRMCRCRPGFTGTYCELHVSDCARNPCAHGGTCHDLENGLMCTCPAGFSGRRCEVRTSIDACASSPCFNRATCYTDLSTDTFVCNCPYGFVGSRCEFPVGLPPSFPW
T5 sequence (D3ZHH1 28-530): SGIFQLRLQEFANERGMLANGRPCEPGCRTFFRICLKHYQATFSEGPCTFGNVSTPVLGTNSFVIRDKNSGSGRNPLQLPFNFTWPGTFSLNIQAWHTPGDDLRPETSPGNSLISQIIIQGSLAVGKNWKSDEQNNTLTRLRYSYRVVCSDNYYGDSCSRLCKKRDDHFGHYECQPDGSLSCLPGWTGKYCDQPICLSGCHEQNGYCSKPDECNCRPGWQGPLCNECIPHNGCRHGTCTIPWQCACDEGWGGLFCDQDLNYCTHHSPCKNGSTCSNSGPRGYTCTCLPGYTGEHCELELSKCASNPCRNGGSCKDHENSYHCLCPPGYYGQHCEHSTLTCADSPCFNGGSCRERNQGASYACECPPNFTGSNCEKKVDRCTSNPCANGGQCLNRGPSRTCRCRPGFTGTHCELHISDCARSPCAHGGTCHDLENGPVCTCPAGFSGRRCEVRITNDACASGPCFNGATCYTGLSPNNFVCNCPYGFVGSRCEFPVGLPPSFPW

B1: h1A11.1 (antibody, V domains shown)
VH: EVQLVESGGGLVQPGGSLRLSCAASGFTFSNFPMAWVRQAPGKGLEWVATISSSDGTTYYRDSVKGRFTISRDNAKNSLYLQMNSLRAEDTAVYYCARGYYNSPFAYWGQGTLVTVSS
VL: DIQMTQSPSSLSASVGDRVTITCRASEDIYSNLAWYQQKPGKAPKLLIYDTNNLADGVPSRFSGSGSGTDFTLTISSLQPEDFATYYCQQYNNYPPTFGQGTKLEIKR
notes: humanized IgG; also called hu1A11.1; VH.1/VL.1 1A11
For the molecule B1, the EC50 in the test with mouse DLL4 on cells came to 0.21 nM; in [1] it was 3.13 nM; in [11] it was 0.09 nM; in test [12], 0.08 nM; in test [13] it was 0.13 nM. For the same molecule, the Kd in [2] was determined as 38 nM; in test [3], 15 nM; in [8], 32 nM; in test [9], 13 nM; in test [10] it was 18 nM. The IC50 came to 1.3 nM in [4] and 0.4 nM in test [5]. For the same molecule, the “Reporter Assay (EC50, nM)” value in [6] stood at 2.53 nM. In test [7], the binding result was “no binding”. Also, the koff in [8] was 0.00498 s⁻¹; in [9], 0.00212 s⁻¹; in test [10], 0.00255 s⁻¹. Also, the kon in [8] turned out to be 156000 M⁻¹ s⁻¹; in test [9], 158000 M⁻¹ s⁻¹; in [10] it was 144000 M⁻¹ s⁻¹.

B2: h1A11.3 (antibody, V domains shown)
VH: EVQLVESGGGLVQPGGSLRLSCAASGFTFSNFPMAWVRQAPGKGLEWVATISSSDGTTYYRDSVKGRFTISRDNAKNSLYLQMNSLRAEDTAVYYCARGYYNSPFAYWGQGTLVTVSS
VL: DIQMTQSPSSLSASVGDRVTITCRASEDIYSNLAWYQQKPGKAPKLLIFDTNNLADGVPSRFSGSGSGTDFTLTISSLQPEDFATYYCQQYNNYPPTFGQGTKLEIKR
notes: humanized IgG; also called VH.1/VL.1b 1A11
B2: the EC50 in the test with mouse DLL4 on cells is 0.24 nM; in [1], 3.51 nM; in [11] it was 0.08 nM; in [12], 0.07 nM; in test [13] it was 0.16 nM. Further, the values for the Kd in [2] and in test [3] were 37 nM and 15 nM, respectively. In addition, the IC50 was found to be 0.9 nM in test [4] and 0.2 nM in test [5]. Also, the “Reporter Assay (EC50, nM)” value in test [6] was 2.53 nM.

B3: h1A11.9 (antibody, V domains shown)
VH: EVQLVESGGGLVQPGGSLRLSCAASGFTFSNFPMAWVRQAPGKGLEWVATISSSDGTTYYRDSVKGRFTISRDNAKNSLYLQMNSLRAEDTAVYYCSRGYYNSPFAYWGQGTLVTVSS
VL: DIQMTQSPSSLSASVGDRVTITCRASEDIYSNLAWYQQKPGKAPKLLIYDTNNLADGVPSRFSGSGSGTDFTLTISSLQPEDFATYYCQQYNNYPPTFGQGTKLEIKR
notes: humanized IgG; also called VH.1b/VL.1 1A11
Consider B3, for which the EC50 in the test with mouse DLL4 on cells came out at 0.18 nM; in test [1] it was 3.28 nM; in test [11], 0.09 nM; in test [12], 0.07 nM; in test [13], 0.15 nM. The figures for the Kd in test [2] and in test [3] were 34 nM and 13 nM, respectively. The IC50 in test [4] is 0.9 nM; in test [5] it was 0.3 nM. The “Reporter Assay (EC50, nM)” value in [6] was 3.18 nM.

B4: h1A11.4 (antibody, V domains shown)
VH: EVQLVESGGGLVQPGGSLRLSCAASGFTFSNFPMAWVRQAPGKGLEWVATISSSDGTTYYRDSVKGRFTISRDNAKNSLYLQMNSLRAEDTAVYYCARGYYNSPFAYWGQGTLVTVSS
VL: EIVMTQSPATLSVSPGERATLSCRASEDIYSNLAWYQQKPGQSPRLLIFDTNNLADGVPARFSGSGSGTESTLTISSLQSEDFAVYFCQQYNNYPPTFGQGTKLEIKR
notes: humanized IgG; also called VH.1/VL.2a 1A11
In the case of B4, the EC50 with mouse DLL4 on cells amounted to 0.22 nM; in test [1], 3.61 nM; in [11], 0.09 nM; in test [12], 0.08 nM; in test [13], 0.17 nM. Moreover, the values for the Kd in test [2] and in test [3] were 39 nM and 16 nM, respectively. Moreover, the IC50 in test [4] came to 0.9 nM; in [5] it was 0.3 nM. Further, the “Reporter Assay (EC50, nM)” value in [6] amounted to 3.28 nM.

B5: h1A11.8 (antibody, V domains shown)
VH: EVQLVESGGGLVQPGGSLRLSCAASGFTFSNFPMAWVRQAPGKGLEWVATISSSDGTTYYRDSVKGRFTISRDNAKSSLYLQMNSLRAEDTAVYYCSRGYYNSPFAYWGQGTLVTVSS
VL: EIVMTQSPATLSVSPGERATLSCRASEDIYSNLAWYQQKPGQSPRLLIFDTNNLADGVPARFSGSGSGTESTLTISSLQSEDFAVYFCQQYNNYPPTFGQGTKLEIKR
notes: humanized IgG; also called VH.1a/VL.2a 1A11
B5: the EC50 was found to be 0.18 nM with mouse DLL4 on cells; 3.34 nM in [1]; 0.09 nM in test [11]; 0.06 nM in test [12]; 0.17 nM in test [13]. The Kd in test [2] was determined as 24 nM; in test [3], 11 nM. In addition, the IC50 in test [4] worked out at 0.9 nM; in test [5], 0.35 nM. Also, the “Reporter Assay (EC50, nM)” value in test [6] worked out at 4.24 nM.

The record behind these values is patent US20110217237A1 (AbbVie / Abbott, published 2011).
